Reference: the supplement of paper PMC10567573

B1: RIPK4 (parent)
chain: VSVNAQTLDGRTPLHLAAQRGHYR
B2: SLC25A39 (parent)
chain: LTSDLYAPMVAGALARLGTVTVIS

Variants of: B1
Assay: protein stability index of a GFP-peptide fusion (GPS, HEK-293T) (PSI 1-6); higher = more stable
Conditions: c terminus: a fixed tail appended
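Also: lentivirally expressed fusions sorted by FACS into six bins by GFP to DsRed ratio, PSI derived from sequencing read proportions per bin multiplied by bin number.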

Going from N4W to N4I, the protein stability index rises from 2.06 to 2.44.

Going from N4Y to N4F, the protein stability index falls from 3.12 to 2.06.

Compared with N4A, N4M is lower in protein stability index: 3.17 for the first, 2.66 for the second.

Compared with N4H, N4E is lower in protein stability index: 3.46 for the first, 3.17 for the second.

Compared with N4G, N4Q is higher in protein stability index: 3.3 for the first, 3.41 for the second.

Going from N4D to N4T, the protein stability index falls from 3.86 to 3.04.

First: N4P
Second: N4C
The protein stability index of the first is higher: 3.42 for the first, 3.18 for the second.

First: N4L
Second: N4S
The protein stability index of the first is lower: 2.69 for the first, 2.86 for the second.

Compared with N4K, N4R is lower in protein stability index: 3.51 for the first, 3.21 for the second.

Compared with N4V, V1Q is higher in protein stability index: 2.53 for the first, 3.99 for the second.

Compared with V1M, V1W is lower in protein stability index: 4.21 for the first, 3.5 for the second.

Compared with V1A, V1P is lower in protein stability index: 3.94 for the first, 3.85 for the second.

Compared with V1H, V1N is higher in protein stability index: 3.79 for the first, 4.12 for the second.

Going from V1C to V1F, the protein stability index rises from 2.54 to 3.39.

First: V1L
Second: V1S
The protein stability index of the first is higher: 3.98 for the first, 3.62 for the second.

First: V1G
Second: V1I
The protein stability index of the first is higher: 3.76 for the first, 3.54 for the second.

Compared with V1Y, V1R is higher in protein stability index: 3.59 for the first, 4.06 for the second.

Compared with V1K, V1D is higher in protein stability index: 3.74 for the first, 4.66 for the second.

Going from V1T to V1E, the protein stability index rises from 3.78 to 3.97.

Going from T7C to T7I, the protein stability index falls from 2.8 to 2.63.

First: T7P
Second: T7D
The protein stability index of the first is lower: 3.36 for the first, 3.77 for the second.

Compared with T7L, T7K is higher in protein stability index: 3.2 for the first, 3.36 for the second.

Compared with T7G, T7F is lower in protein stability index: 3.35 for the first, 2.11 for the second.

Going from T7H to T7N, the protein stability index rises from 3.12 to 3.64.

Going from T7Q to T7M, the protein stability index falls from 4.04 to 2.98.

Going from T7E to T7A, the protein stability index falls from 3.94 to 3.34.

Compared with Q6I, Q6S is higher in protein stability index: 2.69 for the first, 3.78 for the second.

Going from Q6Y to Q6A, the protein stability index rises from 2.59 to 3.43.

Going from Q6R to Q6G, the protein stability index rises from 3.02 to 3.13.

Compared with Q6W, Q6T is higher in protein stability index: 2.49 for the first, 3.44 for the second.

Going from Q6E to Q6P, the protein stability index rises from 2.95 to 3.96.

Going from Q6H to Q6N, the protein stability index falls from 3.52 to 3.03.

Compared with Q6F, Q6M is higher in protein stability index: 2.22 for the first, 2.87 for the second.

Compared with Q6C, Q6L is higher in protein stability index: 2.62 for the first, 3.69 for the second.

Compared with Q6D, Q6K is lower in protein stability index: 3.93 for the first, 3.21 for the second.

First: Q6V
Second: V3H
The protein stability index of the first is lower: 2.68 for the first, 4.67 for the second.

First: V3T
Second: V3A
The protein stability index of the first is lower: 3.53 for the first, 3.85 for the second.

First: V3F
Second: V3E
The protein stability index of the first is lower: 2.96 for the first, 4.86 for the second.

First: V3S
Second: V3I
The protein stability index of the first is higher: 3.97 for the first, 2.67 for the second.

First: V3Y
Second: V3K
The protein stability index of the first is lower: 2.75 for the first, 3.6 for the second.

First: V3N
Second: V3D
The protein stability index of the first is higher: 4.49 for the first, 4.13 for the second.

Going from V3R to V3M, the protein stability index falls from 4.33 to 3.73.

First: V3C
Second: V3P
The protein stability index of the first is lower: 3.12 for the first, 3.83 for the second.

Compared with V3Q, V3L is lower in protein stability index: 4.22 for the first, 3.35 for the second.

Going from V3W to V3G, the protein stability index rises from 2.69 to 3.9.

Compared with S2H, S2M is higher in protein stability index: 2.42 for the first, 2.89 for the second.

Compared with S2Q, S2Y is lower in protein stability index: 3.22 for the first, 2.82 for the second.

First: S2N
Second: S2A
The protein stability index of the first is higher: 3.73 for the first, 3.24 for the second.

Going from S2L to S2D, the protein stability index rises from 2.86 to 4.08.

Going from S2I to S2K, the protein stability index rises from 2.18 to 3.41.

Compared with S2R, S2T is lower in protein stability index: 3.33 for the first, 2.91 for the second.

First: S2W
Second: S2C
The protein stability index of the first is lower: 2.3 for the first, 2.93 for the second.

First: S2F
Second: S2E
The protein stability index of the first is lower: 2.57 for the first, 3.27 for the second.

First: S2P
Second: S2V
The protein stability index of the first is higher: 3.75 for the first, 2.22 for the second.

First: S2G
Second: A5K
The protein stability index of the first is higher: 3.97 for the first, 3.69 for the second.

Going from A5C to A5H, the protein stability index falls from 3.88 to 3.36.

First: A5N
Second: A5G
The protein stability index of the first is higher: 3.53 for the first, 3.02 for the second.

Going from A5T to A5I, the protein stability index falls from 3.52 to 2.19.

First: A5E
Second: A5V
The protein stability index of the first is higher: 3.73 for the first, 2.64 for the second.

Going from A5P to A5M, the protein stability index falls from 3.12 to 2.77.

Going from A5W to A5D, the protein stability index rises from 2.83 to 4.28.

Going from A5Q to A5R, the protein stability index falls from 3.13 to 2.94.

First: A5Y
Second: A5F
The protein stability index of the first is higher: 3.1 for the first, 2.61 for the second.

Compared with A5S, A5L is lower in protein stability index: 3.37 for the first, 2.76 for the second.

Variants of: B2
Assay: as above
Conditions: c terminus: a fixed tail appended

Going from V20G to V20T, the protein stability index falls from 1.99 to 1.02.

Going from V20Y to V20R, the protein stability index falls from 3.19 to 1.76.

First: V20P
Second: V20E
The protein stability index of the first is lower: 1.45 for the first, 2.43 for the second.

Compared with V20D, V20N is lower in protein stability index: 2.73 for the first, 2.54 for the second.

First: V20H
Second: V20I
The protein stability index of the first is lower: 3.15 for the first, 3.37 for the second.

First: V20F
Second: V20K
The protein stability index of the first is higher: 2.09 for the first, 2.05 for the second.

Going from V20S to V20W, the protein stability index falls from 2.26 to 1.77.

First: I23L
Second: I23E
The protein stability index of the first is higher: 2.75 for the first, 2.54 for the second.

Going from I23S to I23D, the protein stability index rises from 1.95 to 2.3.

Compared with I23Y, I23K is lower in protein stability index: 2.31 for the first, 2.04 for the second.

Compared with I23P, I23R is higher in protein stability index: 1.8 for the first, 1.87 for the second.

First: I23N
Second: I23Q
The protein stability index of the first is lower: 1.98 for the first, 2.56 for the second.

Going from I23G to T19Q, the protein stability index falls from 2.18 to 1.8.

Going from T19K to T19G, the protein stability index falls from 2.21 to 1.91.

Going from T19H to T19V, the protein stability index rises from 1.94 to 2.87.

Going from T19D to A13T, the protein stability index falls from 1.76 to 1.75.

Going from A13R to A13P, the protein stability index falls from 1.79 to 1.16.

First: A13M
Second: A13K
The protein stability index of the first is lower: 3.17 for the first, 3.56 for the second.

Going from A13C to A13Q, the protein stability index falls from 2.73 to 2.61.

A13N showed a protein stability index of 2.09.
